# *1 amine or outer side, *2 acyl side, *3 side chain or, on linkers, in order; H or OH if unused. Side-chain parts run from the residue outwards. The star is where a group is joined. C18 diacid = O=C(O)CCCCCCCCCCCCCCCCC(=O)*; γGlu = O=C(O)[C@H](CCC(=O)[*:2])N[*:1]; Isovaleryl = CC(C)CC(=O)*; Ahx = NCCCCCC(=O)O
# T1: human NPY2 receptor (human, UniProt P49146 1-381)
# T1 construct: whole, on cells; also called hNPY2-R; hNPY2R
# T1 sequence (looked up): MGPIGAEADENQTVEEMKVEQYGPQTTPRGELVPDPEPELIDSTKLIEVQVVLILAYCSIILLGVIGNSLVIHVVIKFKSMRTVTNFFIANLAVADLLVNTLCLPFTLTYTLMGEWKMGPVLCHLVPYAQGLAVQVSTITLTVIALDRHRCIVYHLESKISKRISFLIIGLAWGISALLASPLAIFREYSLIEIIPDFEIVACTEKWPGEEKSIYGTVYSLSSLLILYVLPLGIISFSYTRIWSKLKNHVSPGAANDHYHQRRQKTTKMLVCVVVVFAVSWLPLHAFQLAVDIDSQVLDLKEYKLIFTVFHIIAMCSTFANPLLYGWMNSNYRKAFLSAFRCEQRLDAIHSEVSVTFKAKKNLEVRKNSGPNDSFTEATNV
# Molecular target: T1, human NPY2 receptor
# Test: RLB: displacement of 125I-PYY(1-36) from hNPY2R membranes
row,Ki,Binder
1,22.4 nM,Isovaleryl-APEK([Ahx-γGlu-C18 diacid])PEEDATPEELQRYYVPLRHYYNWLTRQRY-NH2 (SMILES CC(C)CC(=O)N[C@@H](C)C(=O)N1CCC[C@H]1C(=O)N[C@@H](CCC(=O)O)C(=O)N[C@@H](CCCCNC(=O)CCCCCNC(=O)CC[C@H](NC(=O)CCCCCCCCCCCCCCCCC(=O)O)C(=O)O)C(=O)N1CCC[C@H]1C(=O)N[C@@H](CCC(=O)O)C(=O)N[C@@H](CCC(=O)O)C(=O)N[C@@H](CC(=O)O)C(=O)N[C@@H](C)C(=O)N[C@H](C(=O)N1CCC[C@H]1C(=O)N[C@@H](CCC(=O)O)C(=O)N[C@@H](CCC(=O)O)C(=O)N[C@@H](CC(C)C)C(=O)N[C@@H](CCC(N)=O)C(=O)N[C@@H](CCCNC(=N)N)C(=O)N[C@@H](Cc1ccc(O)cc1)C(=O)N[C@@H](Cc1ccc(O)cc1)C(=O)N[C@H](C(=O)N1CCC[C@H]1C(=O)N[C@@H](CC(C)C)C(=O)N[C@@H](CCCNC(=N)N)C(=O)N[C@@H](Cc1c[nH]cn1)C(=O)N[C@@H](Cc1ccc(O)cc1)C(=O)N[C@@H](Cc1ccc(O)cc1)C(=O)N[C@@H](CC(N)=O)C(=O)N[C@@H](Cc1c[nH]c2ccccc12)C(=O)N[C@@H](CC(C)C)C(=O)N[C@H](C(=O)N[C@@H](CCCNC(=N)N)C(=O)N[C@@H](CCC(N)=O)C(=O)N[C@@H](CCCNC(=N)N)C(=O)N[C@@H](Cc1ccc(O)cc1)C(N)=O)[C@@H](C)O)C(C)C)[C@@H](C)O) [Compound 87]
2,2.92 nM,Isovaleryl-APEK([Ahx-γGlu-C18 diacid])PEEDATPEELQAYYVSLRHYYNWLTRQRY-NH2 (SMILES CC(C)CC(=O)N[C@@H](C)C(=O)N1CCC[C@H]1C(=O)N[C@@H](CCC(=O)O)C(=O)N[C@@H](CCCCNC(=O)CCCCCNC(=O)CC[C@H](NC(=O)CCCCCCCCCCCCCCCCC(=O)O)C(=O)O)C(=O)N1CCC[C@H]1C(=O)N[C@@H](CCC(=O)O)C(=O)N[C@@H](CCC(=O)O)C(=O)N[C@@H](CC(=O)O)C(=O)N[C@@H](C)C(=O)N[C@H](C(=O)N1CCC[C@H]1C(=O)N[C@@H](CCC(=O)O)C(=O)N[C@@H](CCC(=O)O)C(=O)N[C@@H](CC(C)C)C(=O)N[C@@H](CCC(N)=O)C(=O)N[C@@H](C)C(=O)N[C@@H](Cc1ccc(O)cc1)C(=O)N[C@@H](Cc1ccc(O)cc1)C(=O)N[C@H](C(=O)N[C@@H](CO)C(=O)N[C@@H](CC(C)C)C(=O)N[C@@H](CCCNC(=N)N)C(=O)N[C@@H](Cc1c[nH]cn1)C(=O)N[C@@H](Cc1ccc(O)cc1)C(=O)N[C@@H](Cc1ccc(O)cc1)C(=O)N[C@@H](CC(N)=O)C(=O)N[C@@H](Cc1c[nH]c2ccccc12)C(=O)N[C@@H](CC(C)C)C(=O)N[C@H](C(=O)N[C@@H](CCCNC(=N)N)C(=O)N[C@@H](CCC(N)=O)C(=O)N[C@@H](CCCNC(=N)N)C(=O)N[C@@H](Cc1ccc(O)cc1)C(N)=O)[C@@H](C)O)C(C)C)[C@@H](C)O) [Compound 95]
3,0.93 nM,Isovaleryl-APAK([Ahx-γGlu-C18 diacid])PEADASPEELQRYYVELRHYYNWLTRQRY-NH2 (SMILES CC(C)CC(=O)N[C@@H](C)C(=O)N1CCC[C@H]1C(=O)N[C@@H](C)C(=O)N[C@@H](CCCCNC(=O)CCCCCNC(=O)CC[C@H](NC(=O)CCCCCCCCCCCCCCCCC(=O)O)C(=O)O)C(=O)N1CCC[C@H]1C(=O)N[C@@H](CCC(=O)O)C(=O)N[C@@H](C)C(=O)N[C@@H](CC(=O)O)C(=O)N[C@@H](C)C(=O)N[C@@H](CO)C(=O)N1CCC[C@H]1C(=O)N[C@@H](CCC(=O)O)C(=O)N[C@@H](CCC(=O)O)C(=O)N[C@@H](CC(C)C)C(=O)N[C@@H](CCC(N)=O)C(=O)N[C@@H](CCCNC(=N)N)C(=O)N[C@@H](Cc1ccc(O)cc1)C(=O)N[C@@H](Cc1ccc(O)cc1)C(=O)N[C@H](C(=O)N[C@@H](CCC(=O)O)C(=O)N[C@@H](CC(C)C)C(=O)N[C@@H](CCCNC(=N)N)C(=O)N[C@@H](Cc1c[nH]cn1)C(=O)N[C@@H](Cc1ccc(O)cc1)C(=O)N[C@@H](Cc1ccc(O)cc1)C(=O)N[C@@H](CC(N)=O)C(=O)N[C@@H](Cc1c[nH]c2ccccc12)C(=O)N[C@@H](CC(C)C)C(=O)N[C@H](C(=O)N[C@@H](CCCNC(=N)N)C(=O)N[C@@H](CCC(N)=O)C(=O)N[C@@H](CCCNC(=N)N)C(=O)N[C@@H](Cc1ccc(O)cc1)C(N)=O)[C@@H](C)O)C(C)C) [Compound 94]
4,16.3 nM,Isovaleryl-APEK([Ahx-γGlu-C18 diacid])PEEDATPEELQRQYVSLRHYYNWLTRQRY-NH2 (SMILES CC(C)CC(=O)N[C@@H](C)C(=O)N1CCC[C@H]1C(=O)N[C@@H](CCC(=O)O)C(=O)N[C@@H](CCCCNC(=O)CCCCCNC(=O)CC[C@H](NC(=O)CCCCCCCCCCCCCCCCC(=O)O)C(=O)O)C(=O)N1CCC[C@H]1C(=O)N[C@@H](CCC(=O)O)C(=O)N[C@@H](CCC(=O)O)C(=O)N[C@@H](CC(=O)O)C(=O)N[C@@H](C)C(=O)N[C@H](C(=O)N1CCC[C@H]1C(=O)N[C@@H](CCC(=O)O)C(=O)N[C@@H](CCC(=O)O)C(=O)N[C@@H](CC(C)C)C(=O)N[C@@H](CCC(N)=O)C(=O)N[C@@H](CCCNC(=N)N)C(=O)N[C@@H](CCC(N)=O)C(=O)N[C@@H](Cc1ccc(O)cc1)C(=O)N[C@H](C(=O)N[C@@H](CO)C(=O)N[C@@H](CC(C)C)C(=O)N[C@@H](CCCNC(=N)N)C(=O)N[C@@H](Cc1c[nH]cn1)C(=O)N[C@@H](Cc1ccc(O)cc1)C(=O)N[C@@H](Cc1ccc(O)cc1)C(=O)N[C@@H](CC(N)=O)C(=O)N[C@@H](Cc1c[nH]c2ccccc12)C(=O)N[C@@H](CC(C)C)C(=O)N[C@H](C(=O)N[C@@H](CCCNC(=N)N)C(=O)N[C@@H](CCC(N)=O)C(=O)N[C@@H](CCCNC(=N)N)C(=O)N[C@@H](Cc1ccc(O)cc1)C(N)=O)[C@@H](C)O)C(C)C)[C@@H](C)O) [Compound 88]
5,1.71 nM,Isovaleryl-APEK([Ahx-γGlu-C18 diacid])PEEDASPEEIQRYYVQLRHYYNWLTRQRY-NH2 (SMILES CC[C@H](C)[C@H](NC(=O)[C@H](CCC(=O)O)NC(=O)[C@H](CCC(=O)O)NC(=O)[C@@H]1CCCN1C(=O)[C@H](CO)NC(=O)[C@H](C)NC(=O)[C@H](CC(=O)O)NC(=O)[C@H](CCC(=O)O)NC(=O)[C@H](CCC(=O)O)NC(=O)[C@@H]1CCCN1C(=O)[C@H](CCCCNC(=O)CCCCCNC(=O)CC[C@H](NC(=O)CCCCCCCCCCCCCCCCC(=O)O)C(=O)O)NC(=O)[C@H](CCC(=O)O)NC(=O)[C@@H]1CCCN1C(=O)[C@H](C)NC(=O)CC(C)C)C(=O)N[C@@H](CCC(N)=O)C(=O)N[C@@H](CCCNC(=N)N)C(=O)N[C@@H](Cc1ccc(O)cc1)C(=O)N[C@@H](Cc1ccc(O)cc1)C(=O)N[C@H](C(=O)N[C@@H](CCC(N)=O)C(=O)N[C@@H](CC(C)C)C(=O)N[C@@H](CCCNC(=N)N)C(=O)N[C@@H](Cc1c[nH]cn1)C(=O)N[C@@H](Cc1ccc(O)cc1)C(=O)N[C@@H](Cc1ccc(O)cc1)C(=O)N[C@@H](CC(N)=O)C(=O)N[C@@H](Cc1c[nH]c2ccccc12)C(=O)N[C@@H](CC(C)C)C(=O)N[C@H](C(=O)N[C@@H](CCCNC(=N)N)C(=O)N[C@@H](CCC(N)=O)C(=O)N[C@@H](CCCNC(=N)N)C(=O)N[C@@H](Cc1ccc(O)cc1)C(N)=O)[C@@H](C)O)C(C)C) [Compound 93]
6,8.71 nM,Isovaleryl-APEK([Ahx-γGlu-C18 diacid])PEEDATPEELQRYYVVLRHYYNWLTRQRY-NH2 (SMILES CC(C)CC(=O)N[C@@H](C)C(=O)N1CCC[C@H]1C(=O)N[C@@H](CCC(=O)O)C(=O)N[C@@H](CCCCNC(=O)CCCCCNC(=O)CC[C@H](NC(=O)CCCCCCCCCCCCCCCCC(=O)O)C(=O)O)C(=O)N1CCC[C@H]1C(=O)N[C@@H](CCC(=O)O)C(=O)N[C@@H](CCC(=O)O)C(=O)N[C@@H](CC(=O)O)C(=O)N[C@@H](C)C(=O)N[C@H](C(=O)N1CCC[C@H]1C(=O)N[C@@H](CCC(=O)O)C(=O)N[C@@H](CCC(=O)O)C(=O)N[C@@H](CC(C)C)C(=O)N[C@@H](CCC(N)=O)C(=O)N[C@@H](CCCNC(=N)N)C(=O)N[C@@H](Cc1ccc(O)cc1)C(=O)N[C@@H](Cc1ccc(O)cc1)C(=O)N[C@H](C(=O)N[C@H](C(=O)N[C@@H](CC(C)C)C(=O)N[C@@H](CCCNC(=N)N)C(=O)N[C@@H](Cc1c[nH]cn1)C(=O)N[C@@H](Cc1ccc(O)cc1)C(=O)N[C@@H](Cc1ccc(O)cc1)C(=O)N[C@@H](CC(N)=O)C(=O)N[C@@H](Cc1c[nH]c2ccccc12)C(=O)N[C@@H](CC(C)C)C(=O)N[C@H](C(=O)N[C@@H](CCCNC(=N)N)C(=O)N[C@@H](CCC(N)=O)C(=O)N[C@@H](CCCNC(=N)N)C(=O)N[C@@H](Cc1ccc(O)cc1)C(N)=O)[C@@H](C)O)C(C)C)C(C)C)[C@@H](C)O) [Compound 90]

# Source: US20260015399A1 (Boehringer Ingelheim, published 2026)
